Assay results taken from publication PMC6157868, “Characterization of novel glycosyl hydrolases discovered by cell wall glycan directed monoclonal antibody screening and metagenome analysis of maize aerial root mucilage” (PLoS ONE, 2018).

Key:
[1] = molecular target: T1, α-N-Arabinofuranosidase (FjArf51) (Flavobacterium johnsoniae, UniProt A5FF88); assay: 4-nitrophenol release at […] nm, Michaelis-Menten fit; assay type: biochemical; settings: 30 °C, pH 7, 50 mM phosphate
T1 construct: gene Fjoh_3113; full-length codon-optimised synthetic gene, pET-28a(+), C-terminal 6xHis, E. coli BL21(DE3) pLysS, 75 kDa
T1 sequence (A5FF88 1-661): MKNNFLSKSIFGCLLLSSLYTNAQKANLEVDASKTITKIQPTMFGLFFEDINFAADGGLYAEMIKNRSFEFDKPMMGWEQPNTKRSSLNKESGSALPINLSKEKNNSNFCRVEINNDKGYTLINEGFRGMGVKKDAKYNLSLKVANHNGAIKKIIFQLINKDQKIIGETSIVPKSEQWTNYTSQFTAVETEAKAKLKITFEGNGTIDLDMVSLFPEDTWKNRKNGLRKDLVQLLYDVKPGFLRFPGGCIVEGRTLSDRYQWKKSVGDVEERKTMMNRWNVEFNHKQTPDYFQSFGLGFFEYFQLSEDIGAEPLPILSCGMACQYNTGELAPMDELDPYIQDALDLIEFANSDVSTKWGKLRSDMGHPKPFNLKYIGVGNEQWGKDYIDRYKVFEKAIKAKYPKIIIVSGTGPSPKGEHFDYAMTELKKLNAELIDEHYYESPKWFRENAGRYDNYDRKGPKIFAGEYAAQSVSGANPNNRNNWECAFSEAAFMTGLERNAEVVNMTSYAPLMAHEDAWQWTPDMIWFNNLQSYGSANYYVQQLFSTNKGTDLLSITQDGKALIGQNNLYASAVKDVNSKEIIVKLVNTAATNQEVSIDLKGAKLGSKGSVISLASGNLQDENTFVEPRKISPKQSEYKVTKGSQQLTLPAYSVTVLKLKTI

[2] = substrate: O=[N+]([O-])c1ccc(O[C@@H]2O[C@H](CO)[C@H](O)[C@H](O)[C@H]2O)cc1; assay: purified protein; assay type: biochemical, Agrobacterium fabrum; settings: 30 °C, pH 7, 50 mM phosphate
[3] = substrate: O=[N+]([O-])c1ccc(O[C@@H]2O[C@H](CO)[C@@H](O)[C@H](O)[C@@H]2O)cc1; assay: purified protein; assay type: biochemical, Agrobacterium fabrum; settings: 30 °C, pH 7, 50 mM phosphate
[4] = substrate: O=[N+]([O-])c1ccc(O[C@@H]2OC[C@@H](O[C@@H]3OC[C@@H](O[C@@H]4OC[C@@H](O)[C@H](O)[C@H]4O)[C@H](O)[C@H]3O)[C@H](O)[C@H]2O)cc1; assay: purified protein; assay type: biochemical, Spirosoma linguale; settings: 30 °C, pH 6, 50 mM phosphate
[5] = substrate: O=[N+]([O-])c1ccc(O[C@@H]2OC[C@@H](O[C@@H]3OC[C@@H](O[C@@H]4OC[C@@H](O)[C@H](O)[C@H]4O)[C@H](O)[C@H]3O)[C@H](O)[C@H]2O)cc1; assay: purified protein; assay type: biochemical, Flavobacterium johnsoniae; settings: 30 °C, pH 6, 50 mM phosphate
[6] = substrate: C[C@@H]1O[C@@H](Oc2ccc([N+](=O)[O-])cc2)[C@@H](O)[C@H](O)[C@@H]1O; assay: purified protein; assay type: biochemical, Spirosoma linguale; settings: 30 °C, pH 5, 50 mM citrate-phosphate

Molecule: O=[N+]([O-])c1ccc(O[C@@H]2OC[C@H](O)[C@H](O)[C@H]2O)cc1 [4NP-α-Ara]
- Km [1]: 220 ± 87 µM

B1: β-Mannosidase (AfMan2) (Agrobacterium fabrum str. C58) (protein)
chain: MISSSTPETVIDLAGLWHLASVEGDHATEISIPGDIHSALKNAAIIPDPYHGANEKAVQWVAQQDWIIERTFILDDAEASWYLDIDYLDTVAIVFVNDVPVLSADNCFRRYRPDISRAVRPGENTIRIHFHSNITAGAERQARQPFYIPYHPGNSPIANGNMLRKPQCHFGWDWNIAIAPLGLYGKILLKRLDTARIEHVVSSQHHVEGGVELHVAVTLFAEGPASLPVYLSLGDERLRLECGVGAGETVVRHVFFVENPDLWWPAGSGEQTLYKLTVELPDETVTRQIGFRTIELLTDKDEAGSRFAFRINGREIFCRGANWIPADALYSLTSREKTEDLLCSAVEANMNMIRVWGGGFYEEDWFYDLCDRLGLLVWQDFMFACNLYPCSEDFLDNVEHEVDYQVKRLSSHPSIALWCGDNELVGALTWFDESRNNRDRYLVAYDRLNRTIEKALKKATPEALWWPSSPASGYLDYGDAWHADGSGDMHYWSVWHENKSFDNYHQVKPRFCSEFGFQSYTSMPVIRTYAEDKDMNIASPVIELHQKNVGGNERIAGTMFRYFRFPRDFENFVYLSQVQQALAIRTAVDYWRSLKPHCMGTLYWQLNDTWPVASWSSLDYGGGWKALHYAARRFFQPVAVSAIPSADGRRVTFSMVNDTAEDVEIDMNIVALAMDGNRVPLKSANGTCTSDKAATLTDIDMDSLPDGAILAWNFIASNGMTGEGHHVRDTYKALELQPAGLEFSVGPLKNGQFEIDVTAAGLALFIMLEADQPGRYSDNLFDLAAGETRRIIFTPKGAGPQPHFRIFDLHTCQSSPNPGIETMRRKA
notes: full-length codon-optimised synthetic gene, pET-28a(+), C-terminal 6xHis, E. coli BL21(DE3) pLysS, 93 kDa
- Km [2]: 250 ± 62 µM
- kcat [2]: 269 s⁻¹
- kcat/Km [2]: 1.08e+06 M⁻¹ s⁻¹
- Km [3]: 680 ± 219 µM
- kcat [3]: 1350 s⁻¹
- kcat/Km [3]: 1.98e+06 M⁻¹ s⁻¹

B2: Xylan β-1,4 Xylosidase (SlXyn39) (Spirosoma linguale DSM 74) (protein)
chain: MPLLRRFCLQTGHLSALFFGLVVSVAFGSIDSHAQTSPDKPVAIQVDLTKDKGPLKPIWAWFGYDEPNYTYMKDGRKLLTEISQLSKVPVNVRVHSLLVTGDGTAALKWGSTNAYTEDKAGNPIYNWTIIDKIFDTFIERGMKPIAQIGFMPEALSTKPQPYRHYWKPGDNYNDIYTGWAYPPKDYKKWSELVYQWVKHSVQRYGQKEVESWYWELWNEPNISYWKGTTEEYIKLYDYTADAVKRALPTAKIGGPEVTGPNWDVSEKFFRAFMDHVVKGTNAVTGKVGTPIDFITFHAKGAPKVVNGVVQMNMGTQLRDIDKGFAIVASYPSLKNLPIIIGESDPEGCAACSEDLHPQNAYRNGTMYSSYTAASFARKYDLAEARGVNLAGAVTWGFEFEDQAWFRGFRDLATNGVDKPVLNVFRMFGMMQGNRVAVNTDLAYNAKKIRDESVRGEPDINALATKDAQSASVMVWNYHDDNVQGPGSPVSLKINGLTAKKVWVQHYRIDQQFSNSYEVWKKMGSPKAPTAEQVAELEKAGQLQLLASPTWVTVEKGVLTMPFQLPRQGVSLVKVSW
notes: full-length codon-optimised synthetic gene, pET-28a(+), C-terminal 6xHis, E. coli BL21(DE3) pLysS, 65 kDa
- Km [4]: 80 ± 9 µM
- kcat [4]: 2.17 s⁻¹
- kcat/Km [4]: 26900 M⁻¹ s⁻¹

B3: Oligosaccharide reducing end Xylanase (FjXyn8) (Flavobacterium johnsoniae UW101) (protein)
chain: MTVHHNITNGYLSKIHLLLLIFALIVPAFVISQNKKKIDRELKKPQYRNLFKEAGYSQDDIDKKLTKAYYDVFEGPDKVYFEEGDSLGYVSDVKNKDARTEGMSYGMMVAVQFNKKDVFDRLWRWSVKYMQHQDGPREGYFAWSVNPQTKKQNSAGSASDGELYYITSLLFASNKWGNDTGINYYKEARRILDAMWKKDGTGNIYNIINTEHKQISFVPEGGGYNWTDPSYHVPAFYEIWALYAKDGHEQFYKECAEVSRKFLHKACHPVTGLTSDYTEFNGEPHPTPWLPPGFRYDSWRVPMNIAMDYTWYGKDKEWQEDYAKRFQNFLRSKGLETYEDQFNLDGSTPEFILQAGPVKKLRHSIGLVGTAATASLVNKDKASIDFVHAVWNAKLEPYEDGYFDPYYDGLMYLFSLMHLSGNYQIIVPKG
notes: full-length codon-optimised synthetic gene, pET-28a(+), C-terminal 6xHis, E. coli BL21(DE3) pLysS, 50 kDa
- Km [5]: 790 ± 222 µM
- kcat [5]: 5.15 s⁻¹
- kcat/Km [5]: 6530 M⁻¹ s⁻¹

B4: α-L-Fucosidase (SlFuc29) (Spirosoma linguale DSM 74) (protein)
chain: MKKQITSILFSLLVSTSALAQQHSEQNHDKYVWPKDELVKKKLANWQDIKFGLLMHWGTYSEWGVVESWSLCPEDEGWCERRGPYAANWFEYKKAYENLQTTFNPTKFNPERWANAAKGAGMKYVVFTTKHHDGFCMFDTKLTDYKITDKKTPFSSNPRSNVTKEILGAFRQQGFMVGTYFSKPDWHTEDYWWTYFPPKDRNVSYDPKKYPDHWKKFSDFTYNQIEELMTGYGNVDILWLDGGWVRPASTIDSTVSWQRTIPYSQDINMARIAGMARQHQPGLLVVDRTVSGEFENYVTPEQSIPDHYMPIPWESCITMGDSWSYIPKENFKPARKLVQTLVDIVAKNGNLLLNIAPGPDGEWHEEAYQRLQEIGKWITVNGESIYGTKPLAPYRQGQWAFTSNNKAVYASYLPSESEQQLPASISLPALTVAPNAKVTVLGASQALKLTKTKDGFSVVVPEKVRQQLAGQPVWVFKIG
notes: full-length codon-optimised synthetic gene, pET-28a(+), C-terminal 6xHis, E. coli BL21(DE3) pLysS, 55 kDa
- Km [6]: 580 ± 20 µM
- kcat [6]: 53.1 s⁻¹
- kcat/Km [6]: 91800 M⁻¹ s⁻¹
